Measurements from article PMC10881151 (Molecular Biology of the Cell, 2024).
Where two headings read alike, the source gives them in different places.

Tests used:
[1] = target: T1, actin filaments (rabbit skeletal muscle actin) (rabbit, UniProt P68135 1-377); assay: co-sedimentation
[2] = target: T1, actin filaments (rabbit skeletal muscle …); assay: co-sedimentation; remark: listed apart in the source
AUC = target: the molecule itself; assay: AUC

B1: Drp1-WT (full-length human DRP1 isoform 3) (enzyme, UniProt O00429-4 1-699, looked up)
chain: MEALIPVINKLQDVFNTVGADIIQLPQIVVVGTQSSGKSSVLESLVGRDLLPRGTGIVTRRPLILQLVHVSQEDKRKTTGEENGVEAEEWGKFLHTKNKLYTDFDEIRQEIENETERISGNNKGVSPEPIHLKIFSPNVVNLTLVDLPGMTKVPVGDQPKDIELQIRELILRFISNPNSIILAVTAANTDMATSEALKISREVDPDGRRTLAVITKLDLMDAGTDAMDVLMGRVIPVKLGIIGVVNRSQLDINNKKSVTDSIRDEYAFLQKKYPSLANRNGTKYLARTLNRLLMHHIRDCLPELKTRINVLAAQYQSLLNSYGEPVDDKSATLLQLITKFATEYCNTIEGTAKYIETSELCGGARICYIFHETFGRTLESVDPLGGLNTIDILTAIRNATGPRPALFVPEVSFELLVKRQIKRLEEPSLRCVELVHEEMQRIIQHCSNYSTQELLRFPKLHDAIVEVVTCLLRKRLPVTNEMVHNLVAIELAYINTKHPDFADACGLMNNNIEEQRRNRLARELPSAVSRDKVASGGGGVGDGVQEPTTGNWRGMLKTSKAEELLAEEKSKPIPIMPASPQKGHAVNLLDVPVPVARKLSAREQRDCEVIERLIKSYFLIVRKNIQDSVPKAVMHFLVNHVKDTLQSELVGQLYKSSLLDDLLTESEDMAQRRKEAADMLKALQGASQIIAEIRETHLW
[1]
  Kd: 1200 nM
[2]
  Kd: 1700 nM
AUC
  stoichiometry N: 2
